In the supplement of paper PMC6755084:

B1: F1*; the commonest letter at each place (parent)
chain: GAGACCGCAACTGAAAAGTTGTTATCACTTGTCGTAAGACACTTTGGATGGGTTGAAGTTCTGCACGTAGAAGCAAAAGGC

Variants of: B1
Assay: fraction ligated after 30 min (ligated reads / total reads); higher = more ligase activity
Details: with F1*sub RNA substrate (template-directed ligation), 42 °C
In short: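 Oligo-pool templates of ligase ribozyme variants were PCR-amplified, T7-transcribed and gel-purified. Ligated and unligated bands were gel-separated, reverse transcribed with barcoded primers, and MiSeq-sequenced; core bases were filtered at quality ≥20. Fraction ligated per variant was ligated reads over total reads.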
For GAGACCGCAACTGAAAAGTTGTTATCACTTGTCGTAAGACACATTGCATGGGTTGAAGTTCTGCACGTAGAAGCAAAAGGC [T43A G47C], the fraction ligated was 0.515. For GAGACCGCAACTGAAAAGTTGTTATCACTTGTCGTAAGACACATGGGATGGGTTGAAGTTCTGCACGTAGAAGCAAAAGGC [T43A T45G], the fraction ligated was 0.43. Variant GAGACCGCAACTGAAAAGTTGTTATAACTTGTCGTAAGACACTTTGGATGGGTTTAAGTTCTGCACGTAGAAGCAAAAGGC [C26A G55T] has a fraction ligated of 0.249. GAGACCGCAACTGAAAAGTTGTTATCACTTGTCGTAAGACACTTGGGATGGGTTGGAGTTCTGCACGTAGAAGCAAAAGGC [T45G A56G] gave a fraction ligated of 0.775. GAGACCGCAACTGAAAAGTTGTTATCACTTGTCGTATGACACTTTGGACGGGTTGAAGTTCTGCACGTAGAAGCAAAAGGC [A37T T49C] was tested, and the fraction ligated was 0.733. GAGACCGCAACTGAAAAGTTGTTACCACTTGTCGTAAGACACTTTGGATGGGTTGACGTTCTGCACGTAGAAGCAAAAGGC [T25C A57C] was tested, and the fraction ligated was 0.563. For GAGACCGCAACTGAAAAGTTGTTATCGCTTGTCGTAAGACACTTTGGATGGGTTAAAGTTCTGCACGTAGAAGCAAAAGGC [A27G G55A], the fraction ligated was 0.801. Work on GAGACCGCAACTGAAAAGTTGTTACCACTTGTCGTATGACACTTTGGATGGGTTGAAGTTCTGCACGTAGAAGCAAAAGGC [T25C A37T] yielded a fraction ligated of 0.784. Work on GAGACCGCAACTGAAAAGTTGTTACCACTTGTCGTACGACACTTTGGATGGGTTGAAGTTCTGCACGTAGAAGCAAAAGGC [T25C A37C] yielded a fraction ligated of 0.766. In the case of GAGACCGCAACTGAAAAGTTGTTATCACTTGTCGTAAGACACTTTGGTTGGGTTGAGGTTCTGCACGTAGAAGCAAAAGGC [A48T A57G], the fraction ligated is reported as 0.787. In the case of GAGACCGCAACTGAAAAGTTGTTATCACTTGTCGTCAGTCACTTTGGATGGGTTGAAGTTCTGCACGTAGAAGCAAAAGGC [A36C A39T], the fraction ligated is reported as 0.802. With GAGACCGCAACTGAAAAGTTGTTATCACTTGTCGTCGGACACTTTGGATGGGTTGAAGTTCTGCACGTAGAAGCAAAAGGC [A36C A37G] the fraction ligated was 0.825. In the case of GAGACCGCAACTGAAAAGTTGTTATCACTTGTCGTAAGACACTTTGGATTGGTTGTAGTTCTGCACGTAGAAGCAAAAGGC [G50T A56T], the fraction ligated is reported as 0.0827. For GAGACCGCAACTGAAAAGTTGTTATCACTTGTCGTAAGACACTTCGGATTGGTTGAAGTTCTGCACGTAGAAGCAAAAGGC [T45C G50T], the fraction ligated was 0.0706. For GAGACCGCAACTGAAAAGTTGTTATCACTAGTCGTAAGACACTTTGGATGGGTTCAAGTTCTGCACGTAGAAGCAAAAGGC [T30A G55C], the fraction ligated was 0.741. GAGACCGCAACTGAAAAGTTGTTATCACTTGTCGTAAGACGCTTTGGATGGGTTGGAGTTCTGCACGTAGAAGCAAAAGGC [A41G A56G] showed a fraction ligated of 0.764. GAGACCGCAACTGAAAAGTTGTTATCACTTGTCGTAAGACGCTTTGGATGGGTTGCAGTTCTGCACGTAGAAGCAAAAGGC [A41G A56C] gave a fraction ligated of 0.755. GAGACCGCAACTGAAAAGTTGTTATCACTTGTGGTAAGACACTTTGGATGGGTTGGAGTTCTGCACGTAGAAGCAAAAGGC [C33G A56G] showed a fraction ligated of 0.793. GAGACCGCAACTGAAAAGTTGTTATCACTTGTCGTAAGACACTTAGGGTGGGTTGAAGTTCTGCACGTAGAAGCAAAAGGC [T45A A48G] gave a fraction ligated of 0.261. With GAGACCGCAACTGAAAAGTTGTGATCACTTGTAGTAAGACACTTTGGATGGGTTGAAGTTCTGCACGTAGAAGCAAAAGGC [T23G C33A] the fraction ligated was 0.866. In the case of GAGACCGCAACTGAAAAGTTGTTATCACTTGTCGTCAGACACATTGGATGGGTTGAAGTTCTGCACGTAGAAGCAAAAGGC [A36C T43A], the fraction ligated is reported as 0.82. GAGACCGCAACTGAAAAGTTGTTATCACTTGGCGTAAGACACTTTGGATTGGTTGAAGTTCTGCACGTAGAAGCAAAAGGC [T32G G50T] showed a fraction ligated of 0.384. Work on GAGACCGCAACTGAAAAGTTGTTATCACTTGTCGTAAGACACTTTGAAAGGGTTGAAGTTCTGCACGTAGAAGCAAAAGGC [G47A T49A] yielded a fraction ligated of 0.806. Work on GAGACCGCAACTGAAAAGTTGTTATAACTTGTCGTAAGACACTTTGGATGGGTTGACGTTCTGCACGTAGAAGCAAAAGGC [C26A A57C] yielded a fraction ligated of 0.717. In the case of GAGACCGCAACTGAAAAGTTGTTAACACTTGTCGTAAGACACTTTGCATGGGTTGAAGTTCTGCACGTAGAAGCAAAAGGC [T25A G47C], the fraction ligated is reported as 0.0196. In the case of GAGACCGCAACTGAAAAGTTGTTCTCACTTGTCGTAAGACACTTAGGATGGGTTGAAGTTCTGCACGTAGAAGCAAAAGGC [A24C T45A], the fraction ligated is reported as 0.152. GAGACCGCAACTGAAAAGTTGTTATCACTTGTCGTAAGAAACTCTGGATGGGTTGAAGTTCTGCACGTAGAAGCAAAAGGC [C40A T44C] showed a fraction ligated of 0.794. GAGACCGCAACTGAAAAGTTGTTATCACTTGTCGTACGACACTTTGCATGGGTTGAAGTTCTGCACGTAGAAGCAAAAGGC [A37C G47C] gave a fraction ligated of 0.444. For GAGACCGCAACTGAAAAGTTGTTATCACTGGTCGTAAGACACTTTTGATGGGTTGAAGTTCTGCACGTAGAAGCAAAAGGC [T30G G46T], the fraction ligated was 0.785. In the case of GAGACCGCAACTGAAAAGTTGTTATCACTTGTCGTAATACACTTTTGATGGGTTGAAGTTCTGCACGTAGAAGCAAAAGGC [G38T G46T], the fraction ligated is reported as 0.782. Work on GAGACCGCAACTGAAAAGTTGTTATCACTTGTCCTAAGAGACTTTGGATGGGTTGAAGTTCTGCACGTAGAAGCAAAAGGC [G34C C40G] yielded a fraction ligated of 0.818. In the case of GAGACCGCAACTGAAAAGTTGTTTTCACTTGTCCTAAGACACTTTGGATGGGTTGAAGTTCTGCACGTAGAAGCAAAAGGC [A24T G34C], the fraction ligated is reported as 0.557. Work on GAGACCGCAACTGAAAAGTTGTTATCACTTGGCGTAACACACTTTGGATGGGTTGAAGTTCTGCACGTAGAAGCAAAAGGC [T32G G38C] yielded a fraction ligated of 0.798. With GAGACCGCAACTGAAAAGTTGTTATCACTTGTCGTAAGACATTTTGGTTGGGTTGAAGTTCTGCACGTAGAAGCAAAAGGC [C42T A48T] the fraction ligated was 0.796.
